According to article PMC2575085 (Nature structural & molecular biology, 2008):
Several values for one entry are separate records, joined by “and”; a condition that tells them apart may be missing. Identical values can stand only once. Like-named read-outs stand apart in the source and are kept apart here. Values belong to the molecule of their own block, whether it stands above or below them.

Assays:
Test in all cases: EPR
[1] = biological target: Sso1pHT spin-labeled cysteine mutant at position 269 (yeast) (UniProt P32867)
[2] = biological target: Sso1pHT spin-labeled cysteine mutant at position 269 (yeast) (UniProt P32867); remark: listed apart in the source
[3] = biological target: Sso1pHT spin-labeled cysteine mutant at position 272 (yeast) (UniProt P32867)
[4] = biological target: Sso1pHT spin-labeled cysteine mutant at position 272 (yeast) (UniProt P32867); remark: listed apart in the source
[5] = biological target: Sso1pHT spin-labeled cysteine mutant at position 284 (yeast) (UniProt P32867)
[6] = biological target: Sso1pHT spin-labeled cysteine mutant at position 284 (yeast) (UniProt P32867); remark: listed apart in the source
[7] = biological target: the molecule itself

Molecule: Sso1pHT spin-labeled cysteine mutant at position 284 (from UniProt P32867 185-290) (domain or fragment)
stoichiometry N [5]: > 3
ln K (equilibrium constant of nM to Mn, concentration as protein:lipid ratio) [6]: 18.4
stoichiometry N [6]: 4

B1: Sso1pHT I273C, spin-labeled (domain or fragment, yeast, UniProt P32867 185-290, looked up)
chain: EAKTALAEVQARHQELLKLEKSMAELTQLFNDMEELVIEQQENVDVIDKNVEDAQLDVEQGVGHTDKAVKSARKARKNKIRAWLIVFACIVVVVVVVVVPAVVKTR
modifications: MTSSL nitroxide spin label on the cysteine at 273
ln K (equilibrium constant of nM to Mn, concentration as protein:lipid ratio) [7]: 18.4
stoichiometry N [7]: 4 and ≥ 3

Other lines, results leading:

stoichiometry N [1]: > 3
ln K (equilibrium constant of nM to Mn, concentration as protein:lipid ratio) [2]: 18.4
stoichiometry N [2]: 4
Molecule: Sso1pHT spin-labeled cysteine mutant at position 269 (from UniProt P32867 185-290) (domain or fragment)

stoichiometry N [3]: > 3
ln K (equilibrium constant of nM to Mn, concentration as protein:lipid ratio) [4]: 18.4
stoichiometry N [4]: 4
Molecule: Sso1pHT spin-labeled cysteine mutant at position 272 (from UniProt P32867 185-290) (domain or fragment)
